Experimental findings from paper PMC2064962, “Inhibition of Protein Aggregation: Supramolecular Assemblies of Arginine Hold the Key” (PLoS ONE, 2007) are described below.

The series deals with the molecule itself. Briefly: SEC; SMART Superdex G75 column, 0.02 M sodium phosphate buffer pH 7.4 (PB), with or without 0.2 M arginine; 10 µg peptide in 50 µl, flow 100 µl/min, monitored at 257 nm; self-association, monomer and tetramer seen. Background: In gel filtration, larger molecules generally elute earlier.

B1: Mouse Alzheimer's amyloid beta 1-42 peptide (peptide)
peptide: DAEFGHDSGFEVRHQKLVFFAEDVGSNKGAIIGLMVGGVVIA
notes: Amyloid beta 1-42, the cut product of mouse amyloid precursor protein (APP); numbers count on: the Aβ peptide; it was removed; also called Aβ_(1-42); mouse Aβ_(1-42); source: synthetic peptide (Fmoc chemistry, purified on ProRPC C-18); dissolved in 0.01 M NaOH before use
With B1, the “stoichiometry N” value came out at 4.

Broadly, the stoichiometry N is a count of units in the complex or per binding partner.
